Results reported in PMC6158740 (Nucleic Acids Research, 2018).

B1: BBC742/BBC743 dsDNA probe (dsDNA)
DNA 1: ATTCCGGGGATCCGTCGACCTGCAGTTCAGAAGCAGCTCCAGCCTACA
DNA 2: TGTAGGCTGGAGCTGCTTCTGAACTGCAGGTCGACGGATCCCCGGAAT

Assays:
[1] = biological target: ComM (Vibrio cholerae, UniProt Q9KVV6); conditions: AMP-PNP, nonhydrolyzable analogue; pH 7.5, 37 °C
[2] = biological target: T1, ComM (Vibrio cholerae, UniProt Q9KVV6 1-507); experiment: EMSA
T1 sequence: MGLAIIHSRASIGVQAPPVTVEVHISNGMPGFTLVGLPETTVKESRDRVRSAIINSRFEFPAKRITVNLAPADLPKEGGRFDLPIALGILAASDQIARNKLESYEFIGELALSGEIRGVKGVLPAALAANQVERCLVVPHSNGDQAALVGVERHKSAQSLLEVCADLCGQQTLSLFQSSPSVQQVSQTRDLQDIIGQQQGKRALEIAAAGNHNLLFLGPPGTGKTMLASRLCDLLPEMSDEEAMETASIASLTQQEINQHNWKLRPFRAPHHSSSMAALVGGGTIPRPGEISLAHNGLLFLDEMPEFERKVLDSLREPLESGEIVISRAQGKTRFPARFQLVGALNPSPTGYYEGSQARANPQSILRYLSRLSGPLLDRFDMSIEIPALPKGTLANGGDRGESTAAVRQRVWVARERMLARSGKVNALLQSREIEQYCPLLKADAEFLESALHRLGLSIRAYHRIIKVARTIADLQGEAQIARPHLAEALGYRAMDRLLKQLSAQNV

Row | Molecule | three-strand branch migration assay, gel; oligomerization assay [1] | binding result [2]
1 | Nc1ncnc2c1ncn2[C@@H]1O[C@H](COP(=O)(O)OP(=O)(O)NP(=O)(O)O)[C@@H](O)[C@H]1O [AMP-PNP] | This activity was inhibited when ComM was incubated with AMP-PNP | –
2 | ATTCCGGGGATCCGTCGACCTGCAGTTCAGAAGCAGCTCCAGCCTACA (ssDNA) [BBC742 ssDNA probe] | – | binds
3 | B1 | – | binds
